The values below come from the DeepSol protein solubility set.

The series can be described thus: soluble on expression in E. coli; label from the status in PepcDB or PDB records.
Turning to “MGSDKIHHHHHHMIKVAVVGTVGIPACYGGFESLVENLTSYTSNKIEYDVFCSSKSYTNKRSHYNGAQLSYIPLNANGVQSIFYDIISLIFCIFKKPDVTLVLGVSGCLFLPVYRLLSKSKIVTNIDGLEWKRDKWSKWAKKFLKFSEYMAVKFSDVVITDNKAIGDYVNAEYSKDNVVIAYGGDHAIIEGKHVGPEQDYYLSLCRIEPENNVQMILNAFSKSQHKLKFVGNWNSSEFGRKLKREFSDQPNIDIVDPIYDVNQLFKLRSECKGYVHGHSAGGTNPSLVEAMHFEKTIFAFDCNFNRYTTEDKAVYFSSSKELNDKLTEVTKDELAVISTDMKQIADRRYTWKVINHMYEETYL”, the “soluble on expression in E. coli” value is “not soluble”.
The entry for “MGSDKIHHHHHHMIKVLHLFTTLDSGGVESFLFNYYSHIDRKKIQFDFIVPGKEQGFLEDKMKELGAKVYHVPLLRKKPLHQFLSLARIIKKGDYDIVHCHGYKSAIGLILSKIIGCKIRIIHSHMAYVTENSFQKVLRKLVTILVKILATHWFACGEDSAKWLYGEKAYKDGKIEIIFNAIDLKKYQFLSDVREKCRRELDVSNKFVLGNIARLSDQKNQSYLFNVLKELILIKPNVILLLVGNGEDEQKLKQKALELNLTPYVLFLGRRTDISDLLSAMDVFLLPSKYEGLPVSLVEAQASGLQILSSDTVTQEVDVTKNISYLPINEESVLLWKDKVLSLTSEECNRFEINNSMTDGLYDICYQASKLLNRYQEMCVIKEI” is “not soluble”; for “MGSDKIHHHHHHMILGEIMEVLAFKNQSLIDHVNDMVKYWERIKYRYLKTIKRALEALNIKLDIEKVDEFMKILIKLHDIGKASKIYQRAIINDQEKLMGFRHELVSAYYTYHILLKKFGDKNLAFIGALTVMLHHEPIIMGQIRNLKKKELTAEVVLDKLKKFDGMIEDFEDLIKKLIGYSIGDIIKNDSNKDDIIRFVIEMSVRARHTPNSEKLRFIVGTLLLPLVMCDYKGAESREGKAPKFAEVLEVESYVI” it is “not soluble”.
For “MGSDKIHHHHHHMILMRISIKGLGISGLYLYERLKQSGFDVTAFDVRRRDFYIPCAYATNFNLMKPFMSRIGIDFDNYVLFRSETITMSGENGSEIEFPSAGLVTFDRNGLQRDMMNRIEMETETKADLVVDATGISRSYLGRINGDLTYYTKEYLTDHVIHRDFYFLFLNRGVGYLWEFPLDRGHFHVGIGSIRRDDLNRIDRYNRIRITGRRIRMKPLFEVASIGNIVGIGESVGTVSPLTGEGILPSIESAELLYQAISDKSDPNEAIRLYLKKLNTSFSHYYKLSDFVRKVQTGKLLRPSNIRYASLITKDMKHFGIDFSLGKAVRALIQ”, the “soluble on expression in E. coli” value was “not soluble”.
The entry for “MGSDKIHHHHHHMILSHFSTKVVTFFGSRFKAVRGVDLKRYRKELKLKQQELASKLGIERSLISKIESGKRVISKELEQKIINVLNLDGGHASVEAKIDFLRIRFKTLDVRTVIEKLLHMDMNWFTHESRGFYHYTETFSYSSIRIFRNPENVNMGIMLDLSGEGCRQLEEIFEEDNNRSWTEFFRSLYDDDIFGQGILVDTKITRIDIALDELIVKGQENFDLYVLKEKMEQGLVDTTFKNFDFSGGFVYENKKMVNKGLSLYFGSRQSPLYFNFYQKDYELARKESMSVEEAREKHEIKNRYEIRLSDEKAFLFVEYFLSSGESLDWLVKEIINQSLTVYDIEDDMKVYCKSWHDVVDKLEGLKLSVQGEKPSIEKTLRWLSNYLAPSLKMIKEIDNLLGTNELMERIDLAELKEKHEEIIEMVSVDAKDLLFTNRDNKSVRSYMEREFELEEMYPF” is “not soluble”; for “MGSDKIHHHHHHMINQVYQLVAPRQFDVTYNNVDIYGNHVIVRPLYLSICAADQRYYTGRRDENVLRKKLPMSLVHEAVGEVVFDSKGVFEKGTKVVMVPNTPTEQHHIIAENYLASSYFRSSGYDGFMQDYVVMAHDRIVPLPNDIDLSTISYTELVSVSYHAIQRFERKSIPLKNSFGIWGDGNLGYITAILLRKLYPEAKIYVFGKTDYKLSHFSFVDDIFTVNQIPDDLKIDHAFECVGGKGSQVALQQIVEHISPEGSIALLGVSELPVEVNTRLVLEKGLTLIGSSRSGSKDFEQVVDLYRKYPDIVEKLALLKGHEINVCTMQDIVQAFEMDLSTSWGKTVLKWTI” it is “not soluble”; for “MGSDKIHHHHHHMINRSLGISCGLVIVLAGCSETTTKDSSKTVPKTSETVKSDIIFKNLRTPWNIEKNQEVFYITEREGTIVKGTEGNYSRTDLELTEPVVAQGEGGLLGMALDPDFSKNRTAYVYHTYEKDGALWNRIIAIKEEKESWKEQRVLLDKIPGATIHNGGRIEIGPDGLLYVTAGDAAVPENAQKLSSLSGKILRMKLDGKPADGNVKEYIYSYGHRNPQGLVFVDQTLYATEHGQNGHDEINRIEQKNYGWPLIEGTEKQQGLVTPWYEVGEKSIAPSGVAEQNGKLYFGTLVGQSLRSIETESSKVEQIVTDRGRIRDVMTDGKELYYVTNNTDGRGNSSDEDDVLVRLKP” it is “not soluble”.
Turning to “MGSDKIHHHHHHMIPEKRIIRRIQSGGCAIHCQDCSISQLCIPFTLNEHELDQLDNIIERKKPIQKGQTLFKAGDELKSLYAIRSGTIKSYTITEQGDEQITGFHLAGDLVGFDAIGSGHHPSFAQALETSMVCEIPFETLDDLSGKMPNLRQQMMRLMSGEIKGDQDMILLLSKKNAEERLAAFIYNLSRRFAQRGFSPREFRLTMTRGDIGNYLGLTVETISRLLGRFQKSGMLAVKGKYITIENNDALAQLAGHTRNVA”, the “soluble on expression in E. coli” value is recorded as “not soluble”.
Regarding “MGSDKIHHHHHHMIRISNKIKTLLAMLSFVQVTSGCDATVQDIIIDTDPGVEIGNNDYYTWCKETLSVIDKDLKISGTHSYYENQDRSQVSFIWGNIFLLYTYTEGISLSKSEWSDALMNCFLNFDNYWHPNYKGIAGYATLPTSAEKVPDRFYDENGWTAIGLCDAYLATQNNSYLEKAKGALAFSLSGEDNVLGGGIYFQETFVSLPVQKNTICSAVTMLSCMKLYEITQDRQYLDAAIRINDWTVENLLDKSDNLLWDAKMVADGSVNTQKWSYNAGFMIRSWLKMYQATKDEKYLSQAKATLASSEAKWYNSINGALNDPGYFAFSIIDSWFDMYDTDKNTVWLTKAFHAINFIHNKLRDGNGRYPEHWGTPTTSNLEKYDLRFSTVAAYMYMRAANYKRILND”, the “soluble on expression in E. coli” value is “not soluble”.
With “MGSDKIHHHHHHMIRKIIKIDKEKCNGCGACASACHEGAIDIIDGKAELVREHFCDGLGDCLPECPTGAISFEERDAPAYDEEAVKEAQKKIAAKNRAISSHSGCPGSKIMQIRRTETSEPVKATSTADSGSKLQNWPVQIKLAPVNAPYFNGSKLLIAADCTAYAYAAFHQDFIRNKVTLIGCPKLDQVDYSEKLTAIIQNNSIQSVTIVRMEVPCCGGLEIAAKKALQASGKFIPWQVVTISIDGKIME”, the “soluble on expression in E. coli” value is listed as “not soluble”.
Consider “MGSDKIHHHHHHMIRLGLTSFSEHDYLTGKKRSTLYEYASHLPLVEMDTAYYGIPPKERVAEWVKAVPENFRFVMKVYSGISCQGEWQTYYASEEEMITAFLESMAPLIESKKLFAFLVQFSGTFGCTKENVAYLQKIRHWFKDLPIAIELRNNSWYQPNFVKQMLQFMKENQFSLVIVDEPQIPTNPVPFYPYVTNPNLVLFRFHGRNAAGWLANDAEWRKKRTLYHYNTQEIADLSEAVLKMSQEAKEVGVIFNNNSGGDAAENALQMQKVLNLSYDDLNPKQLDLF”, for which the “soluble on expression in E. coli” value is reported as “soluble”.
Turning to “MGSDKIHHHHHHMIRPSLAHTIISEVRKLLDEDLIVVDPSGTIIASTDKERMGSFHEGALISYNERRRLIITQDDESKLTGVKAGINLPIFFQDQVVGVIGITGDPSKVSAYGELLRKMTELLIKEKYYAEQLEWHARTLEAFVFDWVQQKEWTRSFINQAKMLHIDLTVSRQVIIGYYGQHNRERIQREWWIDVSQTFTRQKDDLLVRWGNDRFVMLLANKAEGKERAVHSIQQIQKYIQNKYRHSLSFGVGQSVCPQELYRSFEQAERALAVAVRTQSIVFEEDLRLDMCLQDVKKQTRVDFVQRTLEPIMKDEDLLETLKTFIARNQSFKETAETLHIHINTLHYRLKKMEDKTGLNPRDFHDLTTLYLGLLFLEDNLKN”, the “soluble on expression in E. coli” value is on record as “not soluble”.
Turning to “MGSDKIHHHHHHMIRYPVLKEGATIGVTAPSSGVPKDLHDLVKAACERMEERGFRVVCGETVWTQEKAKSSEAKKRATELQAMMEDDAIDLMIPPWGGQLLIEVLQFLDFEQWEPKWILGYSDTSLLLLAITLNTGIATAHGTNLVDLRGEYSDDTTAMWQPVLSTKIGDSIVQHSSKKYQKEWDFERPTPCVFHLTEKTKWQGVPKQTLSINGRLLGGCIDVIRHLIGTPYGDVTRFQADVIKGAPIIWFFENCELTTTDLRRTLVQMKLAGWFDHCSGIMFGRSPTNTPVEDYTVDDVFRDLYEELKVPLMTDIDCGHVPPQLTLINGAYAEVKLNDGKGIVTQFFKE”, the “soluble on expression in E. coli” value is given as “not soluble”.
With “MGSDKIHHHHHHMISQFIDRKRELAILEREWKNTPSFVVIYGRRRVGKTRLLVEFSKGKKVFFYTFMEGTKESQVKSLAKELVDFFNDEIFLSFSDWYPLFKYLSGKLMEKTLFVFDEFTYAVKSDRSILSALQRVWDHELSYKPVMLVLSGSLMGIMEDNVLSHSSPLYGRRTAGFRLRSLGLFPSLRFFKSPIEGLKFYMLLGGIPAYLIIASRYETVGEFVEREFLTPEGYFYDEPYIVLSELKELKTYFSILSAMSSGRRRPSEIASEVGLEGRKIYPYLETLIRLGFVERELPIARKEKRGLYRISDPMLMSWFSLIYPNRTEIELGTITLERVEKILQRIFSFRFEDVSREFLVEMNKAGKLPFRFTKIGRWWYKGEEIDLVALNEDEEKALFIEVKWKDLKEREVKGILKDLEKKAGLVGLDGWDKNYGLIEKSIERKEKLREENYLVWDLKDFDALKILSQ”, the “soluble on expression in E. coli” value is reported as “not soluble”.
In the case of “MGSDKIHHHHHHMITISHITAKNMYKSLEERINKFPQGAPPSDTLYKILNVLYTEQEAKLVAQLPIKPFRVKTAAKIWSVSESEAYRVLDKLASKALILDIEDNKGKKYIMPPPMAGFFEFAMMRTRHDIDQKLLAELYYQYMNVEEDFIKDLFYSTETKLGRVYVQEEVLTNDNEVSILDYERATHIIDESTHIGISMCYCRHRMQHVGKACDAPMDICMTFDNVANSLINNKFARRVDKIECKELLHQAYEHNLVQCGENVRKGVTFICNCCGCCCEAMVAAKRFGNLHPVQTTSFIPNINHENCVKCGKCITACPIDAISKVKEDGKEYIKIDEDRCLGCGVCVRNCHKNSIMLLKRDEKIITPANSVHRAVLMAIEKGQLQNLIFDNNALASHRAMGAILSAILKLEPAKKILASKQLKSVYLDKLLSMNDK”, the “soluble on expression in E. coli” value is “not soluble”.
As to “MGSDKIHHHHHHMITPTIRGGHEVNYLVAVEGAKVGDAIAIRVERIRVLSKAASSGVDSPREGSFVGDPYVAKKCPVCNEPWPEFEVVGIGEDAIRCKKCGAPVSPFRMINGYTMVFDHEGGVGVTVDKKTAEMIAKNAWEWHALPKNSKQVPILIFAKADIVGVPSRIRPFLGQLGTIPAVDIPDSHNAGDFGYFLINAPHPYAISKEDYETKLTDGHLDVDSVREGAIVIAPVKVEGGGVYAGDAHAMEGDGEVAGHTTDVTAETTVTVEVIKGLNLEGPILLPPEEDLPPLAKPWRKDEWEKVERLAKKFGIEVEPVAPLQIIGSGPTINDAALNGFKRAAKLFGMSVEEVKNRVTITGAVEIGRLPGIVQVSMQVPLRILEKLGIYELVVKHYNLPF”, the “soluble on expression in E. coli” value is “not soluble”.
In the case of “MGSDKIHHHHHHMITQQQIETVLGQIIDPTTGKDYLTSKAVSDIQIKQDNVSVNIELGYPAKSVLNTVHQQIEQAIRTVPGIGSITVNVTSNIIAHSAQRKLKLIPGVKNVIAVASGKGGVGKSATAVNLALALAAEGATVGILDADIYGPSQPQMLGVSGRPDSPDGKTIEPMQAHGIQMMSIGLLIDVETPMVWRGPMVTQALQQLLNDTRWHDLDYLVIDLPPGTGDIQLTLAQKIPVTGAVIVTTPQDIALLDARKGLKMFEKVGIPILGIVENMSLHTCSHCGHTEPIFGTGGGEKMCRDYNVELLGALPLDIRIREHTDAGKPSVVAEPDGQIADIYRTIARLVAAKISDMARDYSDVFTQIIMEDD”, the “soluble on expression in E. coli” value was “not soluble”.
